Assays:
[1] = biological target: T1, human ASGR-1 carbohydrate binding domain (CBD) (148-291) (human, UniProt P07306 148-291); assay: X-ray crystal structure of the complex, 2.6 A
T1 construct: also called ASGR-1 CBD; ASGR-1 CRD
T1 sequence: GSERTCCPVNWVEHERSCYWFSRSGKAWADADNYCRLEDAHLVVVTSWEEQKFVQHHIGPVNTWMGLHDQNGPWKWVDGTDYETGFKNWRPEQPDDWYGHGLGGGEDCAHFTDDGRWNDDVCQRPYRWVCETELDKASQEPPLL
Source text: 2. The dataset was collected from a single crystal on beamline ID22 at the Argonne National Laboratory and processed with XDS/CCP4;
4. The 194C10 Fab/ASGR-1 CBD complex structure was solved by molecular replacement with the program Phaser; and […]

Human ASGR-2 = biological target: T2, Human ASGR-2 (human, UniProt P07307 1-311); assay: FACS on transfected HEK 293 cells; Y = signal at least 2x irrelevant IgG
T2 construct: Expressed on HEK 293 cells; cDNA GenBank NM_080913.3; also called huASGR-2; hASGR-2
T2 sequence: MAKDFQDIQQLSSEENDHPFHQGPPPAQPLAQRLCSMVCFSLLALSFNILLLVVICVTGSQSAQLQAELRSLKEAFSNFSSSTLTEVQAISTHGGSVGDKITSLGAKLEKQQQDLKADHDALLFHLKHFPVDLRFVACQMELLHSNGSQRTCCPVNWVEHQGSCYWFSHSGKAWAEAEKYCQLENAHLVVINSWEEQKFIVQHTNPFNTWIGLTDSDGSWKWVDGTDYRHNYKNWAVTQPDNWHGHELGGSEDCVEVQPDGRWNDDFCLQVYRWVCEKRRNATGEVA
Protocol: Human ASGR-1-specific, ligand competing antibody samples were tested for binding to ASGR-1 from other species (cynomologus monkey ASGR-1, mouse ASGR-1, rat ASGR-1, dog ASGR-1, and pig ASGR-1) as well as to human ASGR-2 in FACS binding assays at normalized antibody concentrations. For cell-based assays, HEK 293 cells expressing the appropriate antigen of interest were mixed with antibody sample or controls, incubated for 1 hour at 4° C., and then washed twice. Cells with bound antibody were then incubated with Alexa Fluor® 647 IgG Fc fragment-specific detection antibody and 7-AAD viability stain for 15 minutes at 4° C., washed once and resuspended in FACS buffer. Samples were analyzed using a BD Accuri™ Flow Cytometer and an Intellicyt HyperCyt Autosampler. As a negative control, supernatants and controls were also screened against HEK 293 cells transfected with empty parental vector. […] For membrane-prep binding assays, ASGR-1 species specific membrane preps were used to coat LumAvidin® microspheres (beads) and tested for binding to selected hybridoma supernatants or controls. Briefly, ASGR-1 species specific membrane preps were incubated with streptavidin-coated LumAvidin® beads for 45 minutes in the dark at room temperature and washed twice. Beads were resuspeneded in FACS buffer containing Stabilguard®. […] Samples were analyzed using an Intellicyt iQue™ Screener Platform. […]

Cyno ASGR-1 = biological target: T3, Cyno ASGR-1 (cynomolgus monkey, UniProt P07306 1-291 (human entry)); assay: FACS on transfected HEK 293 cells or membrane preps on beads; Y = signal at least 2x irrelevant IgG
T3 construct: Expressed on HEK 293 cells or as membrane prep on beads; cDNA from XP_005582755; also called cynomologus monkey ASGR-1
T3 chain: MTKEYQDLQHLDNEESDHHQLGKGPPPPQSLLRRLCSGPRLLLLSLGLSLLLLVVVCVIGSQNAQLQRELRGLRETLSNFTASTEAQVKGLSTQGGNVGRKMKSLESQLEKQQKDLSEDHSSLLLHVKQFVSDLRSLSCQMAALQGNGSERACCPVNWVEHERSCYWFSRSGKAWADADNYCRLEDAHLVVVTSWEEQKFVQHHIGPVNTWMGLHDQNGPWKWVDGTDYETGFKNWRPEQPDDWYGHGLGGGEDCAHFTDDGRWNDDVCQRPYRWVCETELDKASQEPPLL
Protocol: (§1) Human ASGR-1-specific, ligand competing antibody samples were tested for binding to ASGR-1 from other species (cynomologus monkey ASGR-1, mouse ASGR-1, rat ASGR-1, dog ASGR-1, and pig ASGR-1) as well as to human ASGR-2 in FACS binding assays at normalized antibody concentrations. For cell-based assays, HEK 293 cells expressing the appropriate antigen of interest were mixed with antibody sample or controls, incubated for 1 hour at 4° C., and then washed twice. Cells with bound antibody were then incubated with Alexa Fluor® 647 IgG Fc fragment-specific detection antibody and 7-AAD viability stain for 15 minutes at 4° C., washed once and resuspended in FACS buffer. Samples were analyzed using a BD Accuri™ Flow Cytometer and an Intellicyt HyperCyt Autosampler. As a negative control, supernatants and controls were also screened against HEK 293 cells transfected with empty parental vector. […] For membrane-prep binding assays, ASGR-1 species specific membrane preps were used to coat LumAvidin® microspheres (beads) and tested for binding to selected hybridoma supernatants or controls. Briefly, ASGR-1 species specific membrane preps were incubated with streptavidin-coated LumAvidin® beads for 45 minutes in the dark at room temperature and washed twice. Beads were resuspeneded in FACS buffer containing Stabilguard®. Antigen-bound beads were then incubated with normalized antibody sample for 1 hour in the dark at room temperature, washed twice, incubated with Alexa Fluor® 488 IgG Fc fragment-specific detection antibody for 15 minutes in the dark at room temperature, washed once and finally resuspended in FACS buffer. Samples were analyzed using an Intellicyt iQue™ Screener Platform. FACS buffer supplemented with 1 mM Calcium Chloride was used in all steps. As a negative control, supernatants and controls were also screened against a non-ASGR-1 antigen membrane prep coated on the LumAvidin® beads.

Dog ASGR-1 = biological target: T4, Dog ASGR-1 (dog); assay: as above
T4 construct: Expressed on HEK 293 cells or as membrane prep on beads; cDNA GenBank XM_546579
T4 chain: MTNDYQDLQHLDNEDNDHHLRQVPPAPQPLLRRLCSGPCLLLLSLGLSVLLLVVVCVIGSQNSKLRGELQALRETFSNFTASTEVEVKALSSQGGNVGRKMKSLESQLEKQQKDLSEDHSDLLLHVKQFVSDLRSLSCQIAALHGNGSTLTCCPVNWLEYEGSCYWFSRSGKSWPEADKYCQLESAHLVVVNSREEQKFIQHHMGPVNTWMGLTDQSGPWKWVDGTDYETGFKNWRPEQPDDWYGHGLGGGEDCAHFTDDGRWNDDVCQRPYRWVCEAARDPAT
Protocol: as §1

Pig ASGR-1 = biological target: T5, Pig ASGR-1 (pig); assay: as above
T5 construct: Expressed on HEK 293 cells or as membrane prep on beads; cDNA GenBank NM_001244458
T5 chain: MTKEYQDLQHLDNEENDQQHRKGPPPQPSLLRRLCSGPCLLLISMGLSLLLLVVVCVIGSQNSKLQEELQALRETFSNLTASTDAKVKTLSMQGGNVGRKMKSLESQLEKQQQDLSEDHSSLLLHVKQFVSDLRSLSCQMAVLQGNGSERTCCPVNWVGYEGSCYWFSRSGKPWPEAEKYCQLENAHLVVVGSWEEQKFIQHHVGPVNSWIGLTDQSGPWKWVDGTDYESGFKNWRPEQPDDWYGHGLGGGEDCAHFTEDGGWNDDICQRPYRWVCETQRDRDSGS
Protocol: as §1

Soluble ASGR-1 = biological target: T6, Soluble ASGR-1 (human, UniProt P07306 62-291, biotinylated); assay: limited antigen binding assay; biotinylated soluble ASGR-1 coated at 2.5 ng/mL on LumAvidin beads, FACS
T6 construct: Soluble recombinant protein; also called recombinant, soluble ASGR-1 biotinylated protein
T6 sequence: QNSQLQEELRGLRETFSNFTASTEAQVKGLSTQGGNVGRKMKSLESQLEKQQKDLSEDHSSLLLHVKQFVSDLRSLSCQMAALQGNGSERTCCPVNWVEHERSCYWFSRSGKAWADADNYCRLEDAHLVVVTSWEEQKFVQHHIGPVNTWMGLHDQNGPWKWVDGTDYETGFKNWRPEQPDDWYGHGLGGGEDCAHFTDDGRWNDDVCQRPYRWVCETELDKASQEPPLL
Protocol: To assess antibody and antigen interaction strength (relative binding affinity), ASGR-1 specific, ligand competing antibody hybridoma supernatants were tested in a limiting antigen binding assay. Titrated amounts of recombinant, soluble ASGR-1 biotinylated protein was incubated with streptavidin-coated LumAvidin Beads® for 45 minutes in the dark at room temperature and washed twice. Beads were resuspeneded in FACS buffer containing Stabilguard® and 0.05% Sodium Azide. Antigen-bound beads were then incubated with normalized hybridoma supernatant sample or controls for 18 hours in the dark at room temperature, washed twice, incubated with Alexa Fluor® 488 IgG fragment-specific detection antibody for 15 minutes in the dark at room temperature, washed once and finally resuspended in FACS buffer. Samples were analyzed using an Intellicyt iQue™ Screener Platform. FACS buffer supplemented with 1 mM Calcium Chloride was used in all steps. […] In this assay method, the antibody binding signal correlates with antibody affinity. Antibody binding data for a representative antigen coating concentration that fell in the linear range of the instrument signal detection is shown in Table 7.2. The degree of antibody binding to the target (ASGR-1) correlates with the measured fluorescent intensity and thus allows a relative comparison of affinities across the panel.

Mouse ASGR-1 = biological target: T7, Mouse ASGR-1 (mouse, UniProt P34927 1-284); assay: FACS on transfected HEK 293 cells or membrane preps on beads; binding = signal at least 2x irrelevant IgG
T7 construct: Expressed on HEK 293 cells or as membrane prep on beads; cDNA GenBank BC022106.1; also called muASGR-1; mASGR-1
T7 sequence: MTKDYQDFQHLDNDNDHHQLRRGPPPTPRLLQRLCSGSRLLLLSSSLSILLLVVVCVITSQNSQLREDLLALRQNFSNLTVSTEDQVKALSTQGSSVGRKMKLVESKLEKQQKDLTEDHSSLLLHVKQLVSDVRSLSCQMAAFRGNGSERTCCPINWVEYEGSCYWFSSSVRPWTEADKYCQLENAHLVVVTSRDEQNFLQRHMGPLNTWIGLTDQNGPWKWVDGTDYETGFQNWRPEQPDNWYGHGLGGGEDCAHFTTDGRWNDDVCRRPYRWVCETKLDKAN
Protocol: as §1

[2] = biological target: T8, human ASGR-1 (full length, expressed on cells) (human, UniProt P07306 1-291); assay: flow cytometry; biotinylated ligand on CHO-S cells stably expressing ASGR-1, detected with streptavidin-AF647
T8 construct: single point mutants were made in the CBD in the context of full-length ASGR-1; also called hASGR-1; huASGR-1
T8 sequence: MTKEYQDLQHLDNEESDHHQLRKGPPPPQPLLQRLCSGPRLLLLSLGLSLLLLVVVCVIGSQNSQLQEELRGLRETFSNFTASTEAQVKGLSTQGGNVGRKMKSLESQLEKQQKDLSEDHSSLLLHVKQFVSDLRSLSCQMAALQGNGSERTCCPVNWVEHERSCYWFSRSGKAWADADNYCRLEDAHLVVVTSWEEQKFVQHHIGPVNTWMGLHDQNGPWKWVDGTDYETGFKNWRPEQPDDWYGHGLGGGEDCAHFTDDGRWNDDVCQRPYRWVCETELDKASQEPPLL

[3] = biological target: T1, human ASGR-1 carbohydrate binding …; assay: X-ray crystal structure of the complex, 2.1 A
[4] = biological target: T1, human ASGR-1 carbohydrate binding …; assay: X-ray crystal structure, legend of FIG. 25

B1: 194C10 Fab (Fab, V domains shown)
VH: QVQLQQWGAGLLKPSETLSLTCAVSGGSFRYYYWSWIRQPPGKGLEWFGEINHAGSTNYNPSLKSRVTISIDTSKNQFSLKLRSVTAADTAVYYCARDYGAFDIWGQGTMVTVSS
VL: EIVLTQSPGTLSLSPGERATLSCRASPSVNSGYLAWYQQKPGQTPRLLIFGASSRATGIPDRFSASGSGADFTLTISRLEPEDFAVYFCQQYESSPWTFGQGTKVEIKR
notes: also called Fab fragment of 194C10
[1]
  binding result: binds

B2: 7F4 (antibody, V domains shown)
VH: QLQLQESGPGLVKPSETLSLTCTVSGGSISRSSYYWGWIRQPPGKGLEWIGNIYYSGATYYNPSLKSRVTISVDTSTNQFSLKLSSVTAADTAVYYCARHSGSWSLDYWGQGTLVTVSS
VL: DIQMTQSPSSLSASVGDRVTITCRTSQGIRNDLGWYQQKPGKAPKRLIYAASNLQSGVPSRFSGSGSGTEFTLTISSLQPEDFATYYCLQHSAYPLTFGGGTKVEIK
notes: Tested as hybridoma supernatant at normalized concentration
Human ASGR-2
  binding result: binds
Cyno ASGR-1
  binding result: binds
Dog ASGR-1
  binding result: binds
Pig ASGR-1
  binding result: binds
Soluble ASGR-1
  FACS Geomean: 4910 FACS Geomean
Mouse ASGR-1
  binding result: no binding

B3: desialylated, biotinylated asialofetuin (bovine fetuin, AHSG) (ligand, UniProt P12763 19-359, looked up)
chain: IPLDPVAGYKEPACDDPDTEQAALAAVDYINKHLPRGYKHTLNQIDSVKVWPRRPTGEVYDIEIDTLETTCHVLDPTPLANCSVRQQTQHAVEGDCDIHVLKQDGQFSVLFTKCDSSPDSAEDVRKLCPDCPLLAPLNDSRVVHAVEVALATFNAESNGSYLQLVEISRAQFVPLPVSVSVEFAVAATDCIAKEVVDPTKCNLLAEKQYGFCKGSVIQKALGGEDVRVTCTLFQTQPVIPQPQPDGAEAEAPSAVPDAAGPTPSAAGPPVASVVVGPSVVAVPLPLHRAHYDLRHTFSGVASVESSSGEAFHVGKTPIVGQPSIPGGPVRLCPGRIRYFKI
modifications: desialated with C. perfringens and A. ureafaciens neuraminidases; biotinylated with Innolink Biotin 354S
notes: also called bn-asialofetuin; protein ligand
[2]
  EC50: 10.7 nM

B4: 22G5 Fab (Fab, V domains shown)
VH: EVQLLESGGGLVQPGGSLRLSCAASGFTFSSYAMNWVRQAPGMGLEWVSVISRSGGYTYYADSVKGRFTISRDNSKNTLYLQMNSLRAEDTAVYYCASRLAVAGSEAFDIWGQGTLVTVSS
VL: DIQMTQSPSSLSASVGDRVTITCRASQNISSYLNWYQQKQGKAPKLLIYAASSLQNGVPSRFSGRGSGTDFTLTISSLQPEDFATYYCQQSYRTPLFTFGPGTKVDFK
modifications: N-acetylglucosamine (NAG100) is listed among the light chain boundary residues
notes: Made by cleaving the 22G5-IgG4 mAb with papain; also called Fab fragment of 22G5
[3]
  binding result: binds

B5: 4A2 Fab (Fab, V domains shown)
VH: QVQLVQSGTEVKKPGASVKVSCKASGYTFTNYDINWVRQATGQGLEWMGWMHPNSGNTGYAQKFQGRVTLTRDTSISTAYMELSSLRSEDTAVYYCASSSGWYYFDYWGQGTLVTVSS
VL: DIVMTQSPDSLAVSLGERATINCKSSQSILHSSNNNNYLAWFQQKPGQPPKLLLYWASTRESGVPDRFSGSGSGTDFTLTISSLQPEDVAVYYCQQYYNTPVTFGPGTKVGIKR
notes: Expressed directly as a Fab, with a double stop codon at the end of the CH1 domain; also called Fab fragment of 4A2
[4]
  binding result: binds
